The target of assay [1] is T1, human PERP with myc-His tag expressed in CHO/DG44 cells (PERP/CHO cell) (human, UniProt Q96FX8 1-193).
T1 construct: Four-pass membrane protein of 193 amino acids; On intact cells in FMAT and flow cytometry; as Triton X lysate in sandwich ELISA and immunoprecipitation; SDS-denatured in Western blotting; also called PERP/CHO cells; PERP-expressing cell line; not shown: C-terminal myc-His tag from pcDNA 3.1(-)/myc-His C
In words: flow cytometry on PERP/CHO cells against CHO/DG44 cells, 10 µg/ml. As for the experimental part:
As the cells, PERP/CHO cells and CHO/DG44 cells were used. The cells which were cultured for 2 to 3 days on an Iscove's Modified Dulbecco's medium (manufactured by Invitrogen) containing 10% fetal bovine serum and peeled off by 0.02% EDTA solution (manufactured by Nacalai Tesque) were washed with PBS and blocked for 20 minutes at ice temperature using BSA-PBS in order to avoid non-specific antibody adsorption. […] Again, washing was carried out 3 times using PBS by a centrifugation method, followed by suspension in PBS, and wavelength of 510 to 530 nm excited by laser beam 488 nm Ar was measured by a flow cytometer (manufactured by Beckman Coulter).
Background: A flow cytometer gives signals particle by particle.

The target of assay [2] is T1, human PERP with myc-His tag expressed …. Description: flow cytometry on PERP/CHO cells, 5-fold dilutions from 20 µg/mL. As for the experimental part:
After washing with a buffer for FCM twice, a solution in which PE-labeled anti-human IgG (H+L) antibody (manufactured by Beckman Coulter) was diluted 50-fold with a buffer for FCM was added thereto at 50 μL/well. After reaction in ice shading from the light for 30 minutes, washing with a buffer for FCM was carried out 3 times and fluorescence intensity was measured using a flow cytometer.

B1: anti-PERP mouse antibody KM3411 (antibody, V domains shown)
VH: DVQLQESGPGLVKPSQSLSLTCTVTGFSITTEYAWNWIRQFPGNRLEWMGYIGYTGRTNYSPSLKSRISITRDTSKNQFFLQLNSVTTEDTATYYCTRMDYWGQGTSVTVSS
VL: QIVLIQSPVIMSASPGEKVTITCSASSSVSYMHWFQQKPGTSPKLWIYSTSNLASGVPARFSGSGSGTSYSLTISRMEAEDAATYYCQQRSSYPPTFGAGTKLELK
notes: Used as hybridoma culture supernatant or purified antibody; also called monoclonal antibody KM3411; monoclonal antibody produced by hybridoma KM3411 (FERM BP-8643)
On to B1, for which the binding result in assay [1] was “binds”.

B2: anti-PERP chimeric antibody KM3481 (antibody, V domains shown)
VH: DVQLQESGPGLVKPSQSLSLTCTVTGFSITTEYAWNWIRQFPGNRLEWMGYIGYTGRTNYSPSLKSRISITRDTSKNQFFLQLNSVTTEDTATYYCTRMDYWGQGTSVTVSS
VL: QIVLIQSPVIMSASPGEKVTITCSASSSVSYMHWFQQKPGTSPKLWIYSTSNLASGVPARFSGSGSGTSYSLTISRMEAEDAATYYCQQRSSYPPTFGAGTKLELK
notes: Human chimeric antibody: VH and VL of KM3411 with human CH and CL from the vector pKANTEX93 (WO 97/10354)
Regarding B2, in assay [2], the binding result is “binds”.

The values are drawn from patent publication US20090258007A1 (Kyowa Kirin, published 2009).
